This passage reports Kd results from US20210388110A1 (published 2021).

Substitutions are numbered along the chain they refer to.

For this test, the target named is T1, soluble human CD3ε chain (human, UniProt P07766 23-126, limits assumed).
T1 construct: the text says soluble human CD3ε chain; also called human CD3 epsilon chain
The experiment in a line: SPR (Biacore). A general note: In SPR one partner is held on a chip, and binding of the other changes the refractive index at the surface.

T1 sequence (P07766 23-126 limits assumed): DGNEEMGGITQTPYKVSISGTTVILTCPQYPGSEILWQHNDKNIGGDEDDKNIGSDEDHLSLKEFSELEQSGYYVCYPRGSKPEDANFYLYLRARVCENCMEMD

B1: TR01H082-E22Hh/none-Hi-Kn010G3/L0267-k0 (antibody, human IgG1, kappa, L234A L235A, N297A)
heavy: QVQLVESGGGLVQPGRSLRLSCAASGFTFSNAWMHWVRQAPGKGLEWVAQIKDKSQNYATYYAESVKGRFTISRDDSKNSLYLQMNSLKTEDTAVYYCRYVHYAAGYGVDAWGQGTTVTVSSASTKGPSVFPLAPSSKSTSGGTAALGCLVKDYFPEPVTVSWNSGALTSGVHTFPAVLQSSGLYSLSSVVTVPSSSLGTQTYICNVNHKPSNTKVDKKVEPKSCDKTHTCPPCPAPEAAGGPSVFLFPPKPKDTLMISRTPEVTCVVVDVSHEDPEVKFNWYVDGVEVHNAKTKPREEQYASTYRVVSVLTVLHQDWLNGKEYKCKVSNKALPAPIEKTISKAKGQPREPQVYTLPPSRCELTKNQVSLSCAVKGFYPSDIAVEWESNGQPENNYKTTPPVLDSDGSFFLVSKLTVDKSRWQQGNVFSCSVMHEALHNHYTQKSLSLSPDYKDDDDK
chain: EPKSSDKTHTCPPCPAPELLGGPSVFLFPPKPKDTLMISRTPEVTCVVVDVSHEDPEVKFNWYVDGVEVHNAKTKPREEQYNSTYRVVSVLTVLHQDWLNGKEYKCKVSNKALPAPIEKTISKAKGQPREPQVCTLPPSRDELTKNQVSLWCLVKGFYPSDIAVEWESNGQPENNYKTTPPVLDSDGSFFLYSKLTVDKSRWQQGNVFSCSVMHEALHNRYTQKSLSLSP
light: DIVMTQSPLSLPVTPGEPASISCRPSQSPVHSNRNTYLHWYQQKPGQAPRLLIYKVSNRFSGVPDRFSGSGSGTDFTLKISRVEAEDVGVYYCVQGTQVPYTFGQGTKLEIKRTVAAPSVFIFPPSDEQLKSGTASVVCLLNNFYPREAKVQWKVDNALQSGNSQESVTEQDSKDSTYSLSSTLTLSKADYEKHKVYACEVTHQGLSSPVTKSFNRGEC
notes: single-arm
For B1, binding was put at a Kd of 22.9 nM.

B2: TR01H080-E22Hh/none-Hi-Kn010G3/L0000-k0 (antibody, human IgG1, kappa, L234A L235A, N297A)
heavy: QVQLVESGGGLVQPGRSLRLSCAASGFTFSNAWMHWVRQAPGKGLEWVAQIKDKSNNYATYYAESVKGRFTISRADSKNSIYLQMNSLKTEDTAVYYCRYVHYAAVRRRLSSYGVDIWGQGTTVTVSSASTKGPSVFPLAPSSKSTSGGTAALGCLVKDYFPEPVTVSWNSGALTSGVHTFPAVLQSSGLYSLSSVVTVPSSSLGTQTYICNVNHKPSNTKVDKKVEPKSCDKTHTCPPCPAPEAAGGPSVFLFPPKPKDTLMISRTPEVTCVVVDVSHEDPEVKFNWYVDGVEVHNAKTKPREEQYASTYRVVSVLTVLHQDWLNGKEYKCKVSNKALPAPIEKTISKAKGQPREPQVYTLPPSRCELTKNQVSLSCAVKGFYPSDIAVEWESNGQPENNYKTTPPVLDSDGSFFLVSKLTVDKSRWQQGNVFSCSVMHEALHNHYTQKSLSLSPDYKDDDDK
chain: B1 chain
light: B1 light with P25S, P29L, V94G
notes: single-arm
B2: binding was put at a Kd of 3.25 nM.

B3: CE115HA179-G1dh//-Hi-Kn010G3/L0000-k0 (antibody, human IgG1, kappa)
heavy: not shown
chain: B1 chain
light: B1 light with P25S, P29L, V94G
notes: single-arm
As to B3, the Kd (as a rule, the constant that tells how readily two partners part at equilibrium) came to 8.35 nM.

B4: rCE115H-G1dh//-Hi-Kn010G3/L0000-k0 (antibody, human IgG1, kappa)
heavy: not shown
chain: B1 chain
light: B1 light with P25S, P29L, V94G
notes: single-arm
B4 registered a dissociation constant (Kd) of 57.6 nM. This Kd lies about 6.9-fold higher than the previous one.

B5: TR01H040-E22Hh/none-Hi-Kn010G3/L0000vk1-k0 (antibody, human IgG1, kappa, L234A L235A, N297A)
heavy: B1 heavy with D75A, L81I, A104S, G106S
chain: B1 chain
light: DIQMTQSPSSLSASVGDRVTITCRSSQSLVHSNRNTYLHWYQQKPGKAPKLLIYKVSNRFSGVPSRFSGSGSGTDFTFTISSLQPEDIATYYCGQGTQVPYTFGQGTKVEIKRTVAAPSVFIFPPSDEQLKSGTASVVCLLNNFYPREAKVQWKVDNALQSGNSQESVTEQDSKDSTYSLSSTLTLSKADYEKHKVYACEVTHQGLSSPVTKSFNRGEC
notes: single-arm
Take B5: the Kd worked out at 46.9 nM.

B6: TR01H084-E22Hh/none-Hi-Kn010G3/L0272-k0 (antibody, human IgG1, kappa, L234A L235A, N297A)
heavy: B1 heavy with L11V, R16G, D75A, L81I, A111I
chain: B1 chain
light: B1 light with P25S, S28P, P29L, N35Q, V94G
notes: single-arm
B6: the Kd is 31 nM.

B7: TR01H082-E22Hh/none-Hi-Kn010G3/TR01L023-k0 (antibody, human IgG1, kappa, L234A L235A, N297A)
heavy: B1 heavy
chain: B1 chain
light: B1 light with P25S, Q42L, A48S, R50Q, V94T
notes: single-arm
In turn, B7 came in with a Kd of 42.5 nM. This Kd and that of the molecule before are within 1.5-fold of each other.

B8: CE115HA180-G1dh//-Hi-Kn010G3/L0000-k0 (antibody, human IgG1, kappa)
heavy: not shown
chain: B1 chain
light: B1 light with P25S, P29L, V94G
notes: single-arm
In turn, B8 displayed a Kd of 16.8 nM.

B9: TR01H079-E22Hh/none-Hi-Kn010G3/L0000-k0 (antibody, human IgG1, kappa, L234A L235A, N297A)
heavy: B2 heavy with V106A, R107E, R108M, R109V, L110R, S111D
chain: B1 chain
light: B1 light with P25S, P29L, V94G
notes: single-arm
B9 had a Kd of 50.5 nM.

B10: TR01H084-E22Hh/none-Hi-Kn010G3/L0201-k0 (antibody, human IgG1, kappa, L234A L235A, N297A)
heavy: B1 heavy with L11V, R16G, D75A, L81I, A111I
chain: B1 chain
light: B1 light with P25S, S28P, V94G
notes: single-arm
As for B10, binding was characterised by a dissociation constant (Kd) of 16.5 nM. This Kd lies about 3.1-fold lower than the previous one.

B11: TR01H083-E22Hh/none-Hi-Kn010G3/L0212-k0 (antibody, human IgG1, kappa, L234A L235A, N297A)
heavy: B1 heavy with Q56N, D75A, L81I, A111I
chain: B1 chain
light: B1 light with V94Y
notes: single-arm
In turn, B11 gave a Kd of 0.0586 nM.

B12: TR01H084-E22Hh/none-Hi-Kn010G3/L0262-k0 (antibody, human IgG1, kappa, L234A L235A, N297A)
heavy: B1 heavy with L11V, R16G, D75A, L81I, A111I
chain: B1 chain
light: B1 light with P25S, S28P, V94A
notes: single-arm
For B12, binding was characterised by a dissociation constant (Kd) of 8.51 nM.

B13: TR01H083-E22Hh/none-Hi-Kn010G3/L0222-k0 (antibody, human IgG1, kappa, L234A L235A, N297A)
heavy: B1 heavy with Q56N, D75A, L81I, A111I
chain: B1 chain
light: B1 light with P25S, L38I, H39Q, V94Y
notes: single-arm
The molecule B13 showed a Kd of 9.42 nM.

B14: TR01H083-E22Hh/none-Hi-Kn010G3/L0000-k0 (antibody, human IgG1, kappa, L234A L235A, N297A)
heavy: B1 heavy with Q56N, D75A, L81I, A111I
chain: B1 chain
light: B1 light with P25S, P29L, V94G
notes: single-arm
Consider B14, for which binding was characterised by a dissociation constant (Kd) of 6.83 nM. This Kd and that of the molecule before are within 1.5-fold of each other.

B15: TR01H082-E22Hh/none-Hi-Kn010G3/TR01L018-k0 (antibody, human IgG1, kappa, L234A L235A, N297A)
heavy: B1 heavy
chain: B1 chain
light: B1 light with R24Q, P25A, Q27E, Q42L, A48S, R50Q, V94G
notes: single-arm
Take B15: the Kd turned out to be 47.2 nM.

B16: TR01H083-E22Hh/none-Hi-Kn010G3/L0262-k0 (antibody, human IgG1, kappa, L234A L235A, N297A)
heavy: B1 heavy with Q56N, D75A, L81I, A111I
chain: B1 chain
light: B1 light with P25S, S28P, V94A
notes: single-arm
Molecule B16 showed a Kd of 2.45 nM.

B17: TR01H084-E22Hh/none-Hi-Kn010G3/L0011-k0 (antibody, human IgG1, kappa, L234A L235A, N297A)
heavy: B1 heavy with L11V, R16G, D75A, L81I, A111I
chain: B1 chain
light: B1 light with P25S, S28P, P29L, V94G
notes: single-arm
Molecule B17 yielded a Kd of 19.8 nM. This Kd is about 8.1-fold higher than that of the molecule before.

B18: CE115HA178-G1dh//-Hi-Kn010G3/L0000-k0 (antibody, human IgG1, kappa)
heavy: not shown
chain: B1 chain
light: B1 light with P25S, P29L, V94G
notes: single-arm
The molecule B18 had a Kd of 10.9 nM.

B19: hCE115HA-G1dh//-Hi-Kn010G3/L0000-k0 (antibody, human IgG1, kappa)
heavy: not shown
chain: B1 chain
light: B1 light with P25S, P29L, V94G
notes: single-arm
Turning to B19, the Kd was 65 nM.

B20: TR01H082-E22Hh/none-Hi-Kn010G3/TR01L024-k0 (antibody, human IgG1, kappa, L234A L235A, N297A)
heavy: B1 heavy
chain: B1 chain
light: B1 light with R24Q, P25A, Q27E, Q42L, A48S, R50Q, V94T
notes: single-arm
B20 registered an equilibrium dissociation constant (Kd) of 47.6 nM.

B21: TR01H084-E22Hh/none-Hi-Kn010G3/L0270-k0 (antibody, human IgG1, kappa, L234A L235A, N297A)
heavy: B1 heavy with L11V, R16G, D75A, L81I, A111I
chain: B1 chain
light: B1 light with P25S, P29L, N35Q, V94G
notes: single-arm
As to B21, binding was put at a Kd of 27.6 nM.

B22: TR01H084-E22Hh/none-Hi-Kn010G3/L0000-k0 (antibody, human IgG1, kappa, L234A L235A, N297A)
heavy: B1 heavy with L11V, R16G, D75A, L81I, A111I
chain: B1 chain
light: B1 light with P25S, P29L, V94G
notes: single-arm
B22 came in with a Kd of 21.3 nM.

B23: CE115HA177-G1dh//-Hi-Kn010G3/L0000-k0 (antibody, human IgG1, kappa)
heavy: not shown
chain: B1 chain
light: B1 light with P25S, P29L, V94G
notes: single-arm
For the molecule B23, binding was characterised by a dissociation constant (Kd) of 35.5 nM.

B24: TR01H084-E22Hh/none-Hi-Kn010G3/L0271-k0 (antibody, human IgG1, kappa, L234A L235A, N297A)
heavy: B1 heavy with L11V, R16G, D75A, L81I, A111I
chain: B1 chain
light: B1 light with P25S, S28P, N35Q, V94G
notes: single-arm
Regarding B24, binding was put at a Kd of 27.6 nM.

B25: hCE115HA-E22Hh//-Hi-Kn010G3/L0000-k0 (antibody, human IgG1, kappa, L234A L235A, N297A)
heavy: B1 heavy with L11V, D53A, Q56N, A104G, G106Y
chain: B1 chain
light: B1 light with P25S, P29L, V94G
notes: single-arm
Take B25: the Kd was 143 nM. Against the preceding molecule, the Kd is about 5.2-fold higher.

B26: TR01H100-E22Hh/none-Hi-Kn010G3/L0011-k0 (antibody, human IgG1, kappa, L234A L235A, N297A)
heavy: B1 heavy with T60S
chain: B1 chain
light: B1 light with P25S, S28P, P29L, V94G
notes: single-arm
Turning to B26, the Kd stood at 62.5 nM.

B27: TR01H083-E22Hh/none-Hi-Kn010G3/L0201-k0 (antibody, human IgG1, kappa, L234A L235A, N297A)
heavy: B1 heavy with Q56N, D75A, L81I, A111I
chain: B1 chain
light: B1 light with P25S, S28P, V94G
notes: single-arm
The molecule B27 had a Kd of 4.42 nM.

B28: TR01H083-E22Hh/none-Hi-Kn010G3/L0011-k0 (antibody, human IgG1, kappa, L234A L235A, N297A)
heavy: B1 heavy with Q56N, D75A, L81I, A111I
chain: B1 chain
light: B1 light with P25S, S28P, P29L, V94G
notes: single-arm
B28 yielded a Kd of 6.7 nM.
